According to the nanobody polyreactivity screen of Harvey et al. (2022):

Experiment: yeast display, Sf9 membrane polyspecificity reagent, FACS + sequencing; frameworks hold sequencing errors
Outline: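 After 36–48 hours of galactose induction, yeast (Saccharomyces cerevisiae BJ5465) displaying a synthetic nanobody library were stained at 4 °C for 1 hour with 10% biotinylated, detergent-solubilized Sf9 membrane reagent. Streptavidin microbeads enriched the stained cells before FACS sorting into low and high (top ~1%) gates on anti-HA and streptavidin fluorescence. Each clone's polyreactivity label reflects its gate of origin.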

Sequence | polyreactivity (PSR sort gate)
QDQLVESGGGLVQAGGSLRLSCAASGLTFTYYAMGWYRQAPGKERELVAAMTWNGGRTYYADSVKGRFTISRDNAKNTVYLLMNSLKPEDTAVYYCNARYILSSSGFGYWRQGTQVTVSS | high polyreactivity
QDQLVESGGGLVQAGGSLRLSCAASGLTFYQYDMGWYRQAPGKERELVAAISRSGGRTYYADSVKGRFTISRDIAMITVYLQMNSLKPEDTAVYYCARPDKRLEYSENYYWGQGSQVTVSS | high polyreactivity
QDQLVESGGGLVQAGGSLRLSCAASGLTLKENVMGWYRQAPGKERELFAAISTGASTYYADSVKGRFTISRDNAKNTVYLQMNSLKPEDTAVYYCAKRVTPWYGYWGQGTQVTVSS | high polyreactivity
QDQLVESGGGLVQAGGSLRLSCAASGNIFCYYVMGWYRQAPGKERELVAAITWSGGTTNYADSVKGRFTISRDNAKNTVYLQMNSLKPDDTAVYDCATDRYAYKLYDYWGQGTQVTVSS | low polyreactivity
QDQLVESGGGLVQAGGSLRLSCAASGNIIRKYAMGWYRQAAGKEREFVAAISSSGGRTYYADSVKGRFTISRDNAKNTVYLQMNSLKPEDTAVYYCAAEDWSYYDYDYWGQGTQVTVSS | high polyreactivity
QDQLVESGGGLVQAGGSLRLSCAASGRIFDDTAMGWSRPAPGKERELVAAITGGGRTNYADSVKGRFTISRDNAKNTVYLQMNSLKPEDTAVYYCAAATYGWVIYIYDYWGQGTQVTVSS | low polyreactivity
QDQLVESGGGLVQAGGSLRLSCAASGRIFDYNVMGWYRQAPGTEREFVADINGSGGGTNYADSVKGRFTISRDNAKNTVYFLMNSLKPEDTAVSYCNADSYEYHVPYYDYRYDYWGQGTQVTVSS | low polyreactivity
QDQLVESGGGLVQAGGSLRLSCAASGRIFYFNTMGWSRQAPGKERELVAAISKNGGSTYYADSVKGRFTISRDIAKNTVYLQMNSLKPEDTAVYYCAKTRRLSPYDYWGQGTQVTVSS | high polyreactivity
QDQLVESGGGLVQAGGSLRLSCAASGRIIQYYDMGWYRQAPGKERELVAAITSNGGRTYYADSVKGRFTISRDNAKNTVFLLMNILKPEDTAVYYCAKTFDFSAYPPLTLKYGYWGQGTQVTVSS | high polyreactivity
QDQLVESGGGLVQAGGSLRLSCAASGRILGSNTMGWDRQAPGKERELVAAITSAGNTNYADSVKGRFTISRDNAKNTVYLQMNSLKPEDTAVYYCNVRGQRLYYRVRRLYDYWGQGTQVTVSS | high polyreactivity
QDQLVESGGGLVQAGGSLRLSCAASGRILINNAMVWYRQAPGKERELVARITRGGRTNYADSVNGRFTISRDNPKNTDYFQMYCPKPVDTAVYDCNAEYVTPYYYGFGAKRDYWGQGTQVTVSS | low polyreactivity
QDQLVESGGGLVQAGGSLRLSCAASGRINAMGWYRQAPGKERELVAVITLRGGSTYYADSVKGRFTISRDNAKNTVYLQMNSLKPEDTAVYYCAAETLVSFWFDYWGQGTQVTVSS | low polyreactivity
QDQLVESGGGLVQAGGSLRLSCAASGRNFELYAMGWYRPAPRKERELVATISGSGGSTYYADSVKGRFTISRDNAKNTVYLQMNSLKPEDTAVFYCAKNAYGYYYSRSDDWGQGTQVTVSS | low polyreactivity
QDQLVESGGGLVQAGGSLRLSCAASGRNFGYYTRGWYRQAPGKERELVATINWSGGNTYYADSVKGRFTISRDNAKNTVYLQMTCLKPEDTAVYYCATRSRAPQQVYYQNYDYWGQGTQVTVSS | high polyreactivity
QDQLVESGGGLVQAGGSLRLSCAASGRNFSFNPMGLYRQAPGKERELVATIRTDGTTNYADSVKGRFTISRDNAKNTVYVQMNSLKPEDTAVYYCAADSAYHRRRMYYWGQGTQVTVSS | high polyreactivity
QDQLVESGGGLVQAGGSLRLSCAASGRTFFWNAMGWYRPAPGKERELVAAITWSGGSTYYADSVKGRFTISRDNAKNTVYLQMNSLKPEDPAVYYCAAVVTDYVWRSEYWGQGTQVTVSS | low polyreactivity
QDQLVESGGGLVQAGGSLRLSCAASGRTFHLYAMGWYRPAPGKERELVAAIRWTGVSTYYADSVKGRFTISRDNAKNTVYLEMNSLKPEDTAVYYCATKQRYRVSRDWSSYCYGYWGQGTQVTVSS | high polyreactivity
QDQLVESGGGLVQAGGSLRLSCAASGRTFKTYAMGWYRQAPGKERELVAAISYSSGRTYYADSVKGRFTISRDNAKNTVYLQMNSLKPEDTAVYYCASLGSGVPRYYYWGQGTQVTVSS | high polyreactivity
QDQLVESGGGLVQAGGSLRLSCAASGRTFPWYAMGWYRPAPGKERELVAAISTGGSRTYYADSVKGRFTISRDNAKNTVYLQMNSLKPEDTAVYYCNARNTLRDYPYGYWGQGTQVTVSS | high polyreactivity
QDQLVESGGGLVQAGGSLRLSCAASGRTFRYNAMGWYRQAPGKERELVAAISGRGSSTYYADSVKGRFTISRDNAKNTVYLQMNSLKPEETAVYYCAALPASVRRPGWHDYWGQGTQVTVSS | high polyreactivity
QDQLVESGGGLVQAGGSLRLSCAASGRTFTYYAMGWYRQAPGKDRELDAGISSGGGSTYYADSVKGRFTISRDHAKNTVYLQMNSLKPEDTAVYYCATAKRQGGYSEYDYWGQGTQVTVSS | high polyreactivity

Sequence | polyreactivity (PSR sort gate)
QDQLVESGGGLVQAGGSLRLSCAASGRTFYKYAMGWYRQAPGKERELVAAIRTGGGTSYADSVKGRFTISRDNAKNTVYLQMNSLKPEDTAVYYCNARGVYFWWRLDYWGQGTQVTVSS | low polyreactivity
QDQLVESGGGLVQAGGSLRLSCAASGRTIYQNAMGWYRQAPGKERELVAAISRSGGSTYYADSVKGRFTISRDNAKNTVYLQMNSLKPEDTAVYYCAADPRSYGGGYDYWGQGPQVTVSS | high polyreactivity
QDQLVESGGGLVQAGGSLRLSCAASGSIFFARYSMGWYTQAPGKERELVAAITRATSTTYADSVKGRFTISRDNAKNTVYLQMKSLKPEDTAVYYCNADPAYQFDYWGQGTQVTVSS | high polyreactivity
QDQLVESGGGLVQAGGSLRLSCAASGSIFFLYAMGWYRQAPGKERELVAAIRLSGGSTYYADSVKGRFTISRDNAKNTVYLQMNSLKPEDTAVYYCAAESAAASAVYSVEYDYWGQGTQVTVSS | low polyreactivity
QDQLVESGGGLVQAGGSLRLSCAASGSIFGKYTMGWYRQAPGKERELVAAISRSGSSTYYADSVKGRFTISRDNAKNTVYLQMNSLKPEDTAVYYCAAKFYYGVTSKFESWGQGTQVTVSS | high polyreactivity
QDQLVESGGGLVQAGGSLRLSCAASGSIFPRYDMGWYRQAPGKERELVAAITGSGSSTYYADSVKGRFSISRDNAMNTVYLQMNSLKPEDTAGYYCAARKSRPPFPPPFDYYWRQGTQVTVSS | low polyreactivity
QDQLVESGGGLVQAGGSLRLSCAASGSIFPYNAMAWSRQAPGTERELVAGITYNGGSTYYADSVKGRFTISRDNAKNTVYLQMNSLKREDTAVYYCAAAGRRAFYRYDHWGQGTQVTVSS | high polyreactivity
QDQLVESGGGLVQAGGSLRLSCAASGSIFRAYAMGRYRQPPGKERELVAAIIWTDGSTYYADSVKGRFTISRDNAKNTVYLQMNSLKPEDTAVYYCAKDSIARHNYWGQGTQVTLSS | low polyreactivity
QDQLVESGGGLVQAGGSLRLSCAASGSIFRYYDMGWSRQAPGKERELVAAISDSTGTTYYADSVKGRFTISRDNAKNTVYLQMNSLKPEDTAVYYCNTAYNRYWRPFNSLYYWGQGTQVTVSS | high polyreactivity
QDQLVESGGGLVQAGGSLRLSCAASGSIFSTNAMGWYRQAPGKERELVAAITYSGSRTYYADSVKGRFTISRDTAKNTVFLQMNSLKPEDTAVYYCAADTSWYSWWFDYWGQGTQVTVSS | low polyreactivity
QDQLVESGGGLVQAGGSLRLSCAASGSIFSYYAMGWYRHAPAKDRELVAAITGVGGTNYADSVKGRFTISRDNAKNTVYLQMNSLKPEDTAVYYCAARQYWRRYQYYYWGQGTQVTVSS | high polyreactivity
QDQLVESGGGLVQAGGSLRLSCAASGSIFTDNVMGWYRQATGKERELVAAITSTGGNTYYADSVKGRFTISRDNAKNTVYLQMNSLKREDTAVYYSNKDVARYPYGKFDYWGQGTQVTVSS | low polyreactivity
QDQLVESGGGLVQAGGSLRLSCAASGSIFVHYVMGWYRQAPGKERELVAAISSRGGGTFYADSVKGRFTISRDNAKNTVYLQMNSLKPEDTAVSYCARVPYFGSGAIRDYWGQGTQVTVSS | high polyreactivity
QDQLVESGGGLVQAGGSLRLSCAASGSIFWGYDMGWYRQAPGKEMELVARISYSGGSTSYADSVKGRFTISRDNAKNTVYLQMNSLKPEDTAVYYCAADEGGFWWTYPYDSWGQGTQVTVSS | low polyreactivity
QDQLVESGGGLVQAGGSLRLSCAASGSIFYVNTMGWYRQAHGKERELVADISSGDSTYYADSVKGRFTISRDNAKNTVYLQMNSLKPEDTAVYYCIADVYSWVSGKEGDYWGQGTQVTVSS | low polyreactivity
QDQLVESGGGLVQAGGSLRLSCAASGSIIPFYAMGWYRQAPGKERELVAAITYSGGSTFYADSVKGRFTISRDNAKNTVYLQMNSLKPEDTAVYYCNAVWRFGSSKYYYWGQGTQVTVSS | high polyreactivity
QDQLVESGGGLVQAGGSLRLSCAASGSIIVRNAMGWYRQAPGKERELVAAISRSGSSTYYADSVKGRFTISRDNAKITVFCQMNSLKPEDTAVYYCAKRRPALRWIYYYWGQGTQVTVSS | high polyreactivity
QDQLVESGGGLVQAGGSLRLSCAASGSIIYAYAMGWYRQAPGKERELVAAISWTGGSTYYADSVKGRFTISRDNAKNTVYLQMNCLKPEDTAVYYCAATYYQVASFYVTRYDYWGQGTQVTVSS | low polyreactivity
QDQLVESGGGLVQAGGSLRLSCAASGSNFRFNAMGWDTQAPGKEREFDAANSRSGGRTYYADSVKGRFRISRDNAKNTVYFQMNCLKPEDTAVFYCNAVWRFPIGRSAPRYDYWGQGTQVTVSS | high polyreactivity
QDQLVESGGGLVQAGGSLRLSCAASGSTDYTYDMGWYRQAPGKERELVASITSGGSTNYADSVKGRFTISRDNAKNTVYFQMNSVKPQDTAVYYCAVGTYTIYSGTLYDYKYYWGQGTQVTVSS | low polyreactivity
